Our source for the A450 and Cross-reactivity (%) values is US20060286609A1 (BIOCHECK, published 2006).

The target in test [1] is T1, Mouse Id1: Histidine (mouse, UniProt P20067-2 1-148).
T1 construct: E. coli fusion protein (vector pGW07); also called m-Id1-His; not shown: His-tag
T1 sequence: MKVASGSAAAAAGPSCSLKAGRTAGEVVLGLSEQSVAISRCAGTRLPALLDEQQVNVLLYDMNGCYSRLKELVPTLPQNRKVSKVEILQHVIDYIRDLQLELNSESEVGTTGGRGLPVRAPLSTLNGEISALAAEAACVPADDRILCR
Briefly: ELISA, coated antigen, Ab 0.005 ug/ml.

Test [2] has as its target T2, Human Id3: Histidine (human, UniProt Q02535 1-119, limits assumed).
T2 construct: E. coli fusion protein (vector pGW07); also called h-Id3: His; not shown: His-tag
T2 sequence (looked up): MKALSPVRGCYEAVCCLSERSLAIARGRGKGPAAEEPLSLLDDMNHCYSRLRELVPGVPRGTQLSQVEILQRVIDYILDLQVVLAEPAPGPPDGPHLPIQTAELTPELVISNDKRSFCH
Briefly: ELISA, coated antigen, Ab 0.005 ug/ml.

In test [3] the target is T1, Mouse Id1: Histidine. In words: ELISA, coated antigen; reference mouse Id1.
The target of test [4] is Human Id1: Histidine (human) (UniProt P41134). Briefly: ELISA, coated antigen; reference human Id1.
Chain of Human Id1: Histidine (human) (P41134 whole entry): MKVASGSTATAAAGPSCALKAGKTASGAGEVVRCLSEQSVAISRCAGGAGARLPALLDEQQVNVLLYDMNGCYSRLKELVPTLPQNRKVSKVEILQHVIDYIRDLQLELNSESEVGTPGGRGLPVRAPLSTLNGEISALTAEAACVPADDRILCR
For test [5] the target is unchanged. Briefly: sandwich ELISA, 5-3-coated wells, human Id1:His 1.0 ng/ml, detected with rabbit polyclonal B-5133-HRP.
Test [6] has the same target. Briefly: sandwich ELISA, 5-3-coated wells, human Id1:His 2.5 ng/ml, detected with rabbit polyclonal B-5133-HRP.
Test [7] shares this target. Briefly: ELISA, coated antigen, Ab 0.50 ug/ml.
The target is the same in test [8]. In words: ELISA, coated antigen, Ab 2.50 ug/ml.
The target of test [9] is T3, glutathione S-transferase (GST) (UniProt P08515 1-218 = GST).
T3 construct: Coated on wells as control for the fusion partner of the immunogen
T3 sequence (P08515 whole entry, the tested form may be a part): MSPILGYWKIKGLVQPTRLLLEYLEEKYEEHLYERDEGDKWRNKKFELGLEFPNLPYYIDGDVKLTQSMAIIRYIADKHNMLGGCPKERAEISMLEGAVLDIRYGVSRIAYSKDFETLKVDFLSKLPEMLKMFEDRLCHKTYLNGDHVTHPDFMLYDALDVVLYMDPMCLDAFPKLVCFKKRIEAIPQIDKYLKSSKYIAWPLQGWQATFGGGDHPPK
In words: ELISA, coated antigen, Ab 0.10 ug/ml. How it is done:
(§1) Incubate plates at 2-8° C. overnight (16-24 hours). [0145] 11. Shake off the BSA solution. [0146] 12. Dispense 250 μL of 2.5% sucrose solution into each well. [0147] 13. Incubate plates at 2-8° C. for 4 hours. [0148] 14. Shake off sucrose solution. [0149] 15. Dry in vacuum at room temperature overnight. Screening Method [0150] 1. Dispense 100 μL of antibody diluent, diluted rabbit polyclonal anti-Id1 into appropriate wells. […] 2. Incubate at room temperature with mechanical shaking at 750 rpm for 90 minutes. [0152] 3. Remove the incubation mixture by flicking plate content into an appropriate waste container, followed by rinsing the wells 5 times with distilled water. […] 4. Strike the wells sharply onto absorbent paper or paper towels to remove all residual water droplets. [0154] 5. Dispense 100 μL of Goat Anti-Rabbit IgG-HRP Conjugate Reagent into each well. Gently mix for 5 seconds. [0155] 6. Incubate at room temperature with mechanical shaking at 750 rpm for 90 minutes. […] 7. Repeat procedures 3 and 4. [0157] 8. Dispense 100 μL of TMB Reagent into each well. Gently mix for 5 seconds. [0158] 9. Incubate at room temperature with mechanical shaking at 750 rpm for 20 minutes. [0159] 10. Add 100 μL of Stop Solution (1N HCl) into each well. [0160] 11. Gently mix for 10 seconds to ensure a complete mixing. […] 12. Read optical density (absorbance) at 450 nm. Results from this assay were used to select the rabbit sera with the highest antibodies titer that selectively reacts with mouse Id1 or human Id1 or both.
(§2) A comparison was carried out between the reactivity of the rabbit monoclonal anti-mouse Id1, clone #BCH-1/#37-2, of this invention and the mouse monoclonal anti-mouse/human Id1 from BD Pharmingen with the following antigens prepared in Example 5: mouse Id1:His, human Id1:His, human Id2:His, human Id3:His, and GST. These antigens and protein were used to coat the wells.
(§3) Materials and methods were those described in Example 9 except (a) Pharmingen's mouse monoclonal anti-mouse Id1 was used in addition to the rabbit monoclonal anti-mouse Id1 (Example 10), and (b) goat anti-mouse IgG-HRP conjugate was used to process the wells treated with the Pharmingen monoclonal antibody and polyclonal goat anti-rabbit IgG-HRP conjugate was used to process wells treated with rabbit monoclonal anti-mouse Id1.

Test [10] concerns the target T1, Mouse Id1: Histidine. In words: ELISA, coated antigen, Ab 0.10 ug/ml. On the procedure:
as §1, §2, §3

Test [11] has as its target T3, glutathione S-transferase (GST). In words: ELISA, coated antigen, Ab 10.0 ug/ml. On the procedure:
as §1, §2, §3

For test [12], the target named is T1, Mouse Id1: Histidine. In words: ELISA, coated antigen, Ab 10.0 ug/ml. On the procedure: as §1, §2, §3
Test [13] has as its target T4, Human Id2: Histidine (human, UniProt Q02363 1-134, limits assumed).
T4 construct: E. coli fusion protein (vector pGW07); also called h-Id2: His; not shown: His-tag
T4 sequence (looked up): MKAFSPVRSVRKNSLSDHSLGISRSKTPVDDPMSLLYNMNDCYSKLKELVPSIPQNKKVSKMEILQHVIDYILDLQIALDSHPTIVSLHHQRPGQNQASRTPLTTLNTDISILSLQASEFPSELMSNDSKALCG
In words: ELISA, coated antigen, Ab 10.0 ug/ml. On the procedure:
as §1, §2, §3

The target in test [14] is T2, Human Id3: Histidine. In words: ELISA, coated antigen, Ab 10.0 ug/ml. How it is done:
as §1, §2, §3

The target of test [15] is T3, glutathione S-transferase (GST). Briefly: ELISA, coated antigen, Ab 2.50 ug/ml. On the procedure: as §1, §2, §3
For test [16], the target named is T1, Mouse Id1: Histidine. In words: ELISA, coated antigen, Ab 2.50 ug/ml. On the procedure: as §1, §2, §3
In test [17] the target is T4, Human Id2: Histidine. Briefly: ELISA, coated antigen, Ab 2.50 ug/ml. On the procedure: as §1, §2, §3
The target of test [18] is T2, Human Id3: Histidine. Briefly: ELISA, coated antigen, Ab 2.50 ug/ml. How it is done: as §1, §2, §3

On to “rabbit monoclonal anti-mouse/human Id1, clone #BCH-1/#195-14 (antibody)”, for which the results for the A450 with Mouse Id1: Histidine [1] and with Human Id3: Histidine [2] were 0.249 A450 and 0.047 A450, respectively. The molecule also yielded a Cross-reactivity (%) with Mouse Id1: Histidine [3] of 100%.

Consider “rabbit monoclonal anti-human Id1, clone #BCH-2/#5-3 (antibody)”, for which the A450 in the test with Mouse Id1: Histidine [1] is 0.063 A450; with Human Id3: Histidine [2] it was 0.048 A450; in test [5] it was 0.124 A450; in test [6], 0.244 A450. For the same molecule, the Cross-reactivity (%) in test [4] came out at 100%.

B1: rabbit monoclonal anti-mouse Id1, clone #BCH-1/#37-2 (antibody, V domains shown)
VH: QSVEESGGRLVTPGTPLTLTCKVSGFDINSYAMDWFRQAPGKGLEWIGMMSTRGNTYYTSWAKGRFTISKTSSTTVDLKMTSLTTEDTATYFCARGGLWGPGTLVTVSS
VL: RVLTQTASPVSAAVGGTVTINCQASQSVYNGNRLGWYQLKPGQSPKELIHDASTLASGVPSRFRGSGSGTQFTLTINDVQCDDAATYYCVGSYACSTGDCNVFGGGTEVVVK
notes: Rabbit IgG from hybridoma, Protein G purified; also called m Id1 MoAb 37-2; Rabbit Monoclonal Anti-Mouse Id1 (#37-2)
With B1, the A450 in test [7] was determined as 0.091 A450; in [8], 0.132 A450; in [9] it was 0.047 A450; with Mouse Id1: Histidine [10], 1.29 A450; in test [11] it was 0.108 A450; with Mouse Id1: Histidine [12] it was 3.27 A450. In addition, the A450 in the test with Human Id2: Histidine [13] was 0.115 A450; in the test with Human Id3: Histidine [14], 0.113 A450; in test [15], 0.068 A450; with Mouse Id1: Histidine [16], 3.16 A450; with Human Id2: Histidine [17], 0.07 A450; in the test with Human Id3: Histidine [18], 0.069 A450.
